Where “and” joins values, the source holds several entries; their conditions need not be identical. Equal entries are not always repeated. Where two headings read alike, the source gives them in different places.
Assays:
Experiment in all cases: SPR
[1] = target: DnaKLS (linker switch mutant of DnaK harbouring the PfHsp70-z linker) (E. coli) (UniProt P0A6Y8)
[2] = target: PfHsp70-1LS (linker switch mutant of PfHsp70-1 carrying the linker of PfHsp70-z) (Plasmodium falciparum) (UniProt Q8IB24)
[3] = target: DnaKLS (linker switch mutant of DnaK harbouring the PfHsp70-z linker) (E. coli) (UniProt P0A6Y8); remark: listed apart in the source
[4] = target: PfHsp70-zLS (linker switch mutant of PfHsp70-z carrying the linker of canonical Hsp70) (Plasmodium falciparum) (UniProt Q8IC01)
[5] = target: PfHsp70-1LS (linker switch mutant of PfHsp70-1 carrying the linker of PfHsp70-z) (Plasmodium falciparum) (UniProt Q8IB24); remark: listed apart in the source
[6] = target: PfHsp70-zLS (linker switch mutant of PfHsp70-z carrying the linker of canonical Hsp70) (Plasmodium falciparum) (UniProt Q8IC01); remark: listed apart in the source

Row | koff [1] | kon [1] | Substance | Kd [2] | koff [2] | kon [2] | Kd [3] [nM] | Kd [4] [nM] | Kd [5] [nM] | Kd [1] [nM] | Kd [6] [nM]
1 | 0.0714 s⁻¹ and 0.0903 s⁻¹ and 0.0492 s⁻¹ | – | DnaKLS (linker switch mutant of DnaK harbouring the PfHsp70-z linker) (from UniProt P0A6Y8 1-638) (natural protein) | – | – | – | – | – | – | – | –
2 | – | – | PfHsp70-1LS (linker switch mutant of PfHsp70-1 carrying the linker of PfHsp70-z) (from UniProt Q8IB24 1-677) (natural protein) | 42400 nM and 17200 nM and 59000 nM | 0.0447 s⁻¹ and 0.0633 s⁻¹ and 0.0666 s⁻¹ | – | – | – | – | – | –
3 | – | – | Plasmodium falciparum heat shock protein 70-1 (PfHsp70-1) (from UniProt Q8IB24 1-677) (natural protein) | 4700 nM and 3370 nM and 998 nM | 0.0935 s⁻¹ and 0.0539 s⁻¹ and 0.0392 s⁻¹ | 19900 M⁻¹ s⁻¹ and 16000 M⁻¹ s⁻¹ and 39500 M⁻¹ s⁻¹ | – | – | – | – | –
4 | – | – | NRNNTG (peptide) | 132 nM | – | – | 855 | 25.6 | 466 | 716 | 59.5
5 | – | 45700 M⁻¹ s⁻¹ and 73200 M⁻¹ s⁻¹ and 63200 M⁻¹ s⁻¹ | E. coli Hsp70 (DnaK) (from UniProt P0A6Y8 1-638) (natural protein) | – | – | – | – | – | – | – | –
6 | – | – | ALLLMYRR (peptide) | 89.4 nM | – | – | 2440 | 41.6 | 99.3 | 1950 | 36.5
7 | – | – | ANNNMYRR (peptide) | 778 nM | – | – | 1690 | 3.3 | 977 | 1770 | –
8 | – | – | NRLLTG (peptide) | 682 nM | – | – | 962 | 21.1 | 174 | 891 | 20.7

Source: paper PMC11066147
